T1: monkey TIM-3 extracellular domain protein with hFc tag (cTIM-3-hFc) (monkey)
T1 construct: not shown: human IgG Fc fragment (hFc) of the pCpC vector
T1 chain: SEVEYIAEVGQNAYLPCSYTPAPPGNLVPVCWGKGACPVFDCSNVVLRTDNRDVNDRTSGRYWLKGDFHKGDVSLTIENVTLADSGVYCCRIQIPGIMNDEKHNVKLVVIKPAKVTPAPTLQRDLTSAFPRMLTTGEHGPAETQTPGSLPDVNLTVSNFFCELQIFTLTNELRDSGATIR

T2: monkey TIM-3 on CHOK1 stable cell line (CHOK1-cTIM-3) (monkey)
T2 chain: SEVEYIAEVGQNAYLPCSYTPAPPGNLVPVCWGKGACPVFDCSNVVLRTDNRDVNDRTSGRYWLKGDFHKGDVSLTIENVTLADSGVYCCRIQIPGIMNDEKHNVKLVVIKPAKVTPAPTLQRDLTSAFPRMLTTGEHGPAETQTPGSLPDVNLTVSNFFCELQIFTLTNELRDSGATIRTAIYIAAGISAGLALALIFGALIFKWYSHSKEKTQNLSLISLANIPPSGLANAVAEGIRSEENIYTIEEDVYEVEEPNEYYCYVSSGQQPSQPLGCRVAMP

T3: murine TIM-3 extracellular domain protein with hFc tag (mTIM-3-hFc) (mouse, UniProt Q8VIM0 29-191)
T3 construct: also called mouse TIM-3 extracellular domain protein; not shown: human IgG Fc fragment (hFc) of the pCpC vector
T3 chain: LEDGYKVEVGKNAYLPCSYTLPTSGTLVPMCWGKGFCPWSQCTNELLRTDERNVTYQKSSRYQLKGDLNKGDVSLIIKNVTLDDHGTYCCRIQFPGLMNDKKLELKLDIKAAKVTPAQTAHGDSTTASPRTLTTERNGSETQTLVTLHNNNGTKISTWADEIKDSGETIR

T4: human TIM-3 extracellular domain protein with hFc tag (hTIM-3-hFc) (human, UniProt Q8TDQ0 22-200)
T4 construct: not shown: human IgG Fc fragment (hFc) of the pCpC vector
T4 sequence: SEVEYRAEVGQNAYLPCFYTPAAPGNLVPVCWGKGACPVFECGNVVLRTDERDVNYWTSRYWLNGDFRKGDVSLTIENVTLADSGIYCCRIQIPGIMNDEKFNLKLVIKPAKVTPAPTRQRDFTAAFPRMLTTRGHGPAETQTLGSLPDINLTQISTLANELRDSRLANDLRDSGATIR

T5: murine TIM-3 protein with hFc tag (mTIM-3-hFc protein) (mouse; human, UniProt Q8VIM0 29-191)
T5 construct: Made in HEK293 cells; also called mouse TIM-3 extracellular domain protein; not shown: human IgG Fc fragment (hFc) of the pCpC vector
T5 chain: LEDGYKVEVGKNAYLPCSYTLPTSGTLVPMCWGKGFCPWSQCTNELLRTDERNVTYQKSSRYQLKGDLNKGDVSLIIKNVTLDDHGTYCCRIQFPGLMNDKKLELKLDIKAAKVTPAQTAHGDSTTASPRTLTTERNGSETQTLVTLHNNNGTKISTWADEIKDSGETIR

T6: human TIM-3 protein with hFc tag (hTIM-3-hFc protein) (human, UniProt Q8TDQ0 22-200)
T6 construct: also called immunogen 1; human TIM-3 extracellular domain protein; not shown: human IgG Fc fragment (hFc) of the pCpC vector
T6 sequence: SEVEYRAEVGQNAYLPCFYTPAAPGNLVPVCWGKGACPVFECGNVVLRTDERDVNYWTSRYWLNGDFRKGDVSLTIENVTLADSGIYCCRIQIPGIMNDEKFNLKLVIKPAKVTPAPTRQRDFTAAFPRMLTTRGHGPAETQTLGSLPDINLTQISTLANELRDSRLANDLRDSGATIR


What was measured:
[1] = molecular target: T1, monkey TIM-3 extracellular domain …; test: ELISA, coated monkey TIM-3 ECD protein, 66.667 nM antibody
[2] = molecular target: T2, monkey TIM-3 on CHOK1 stable cell line …; test: FACS, CHOK1-cTIM-3 cells, 0 nM antibody
[3] = molecular target: T3, murine TIM-3 extracellular domain …; test: ELISA, coated mouse TIM-3 ECD protein, 0.0001 nM antibody
[4] = molecular target: T4, human TIM-3 extracellular domain …; test: ELISA, coated human TIM-3 ECD protein, 0.6667 nM antibody
[5] = molecular target: T3, murine TIM-3 extracellular domain …; test: ELISA, coated mouse TIM-3 ECD protein, 66.667 nM antibody
[6] = molecular target: T5, murine TIM-3 protein with hFc tag …; test: ELISA, coated mTIM-3-hFc; antibody 0.0067 nM
Text: (§1) The amino acid sequence 22-200 of the extracellular domain of the human TIM-3 protein described in the step of Example 1 (as shown in SEQ ID NO. 71 in the sequence listing) was cloned into a pCpC vector having a human IgG Fc fragment (hFc), and transfected into HEK293 cells. The cell culture medium was collected, and purified to obtain the human TIM-3 protein with hFc tag (herein referred to as hTIM-3-hFc protein). The amino acid sequence 22-201 of the extracellular domain of the monkey TIM-3 protein (as shown in SEQ ID NO. 72 in the sequence listing) was cloned into a pCpC vector having a human IgG Fc fragment (hFc), and transfected into HEK293 cells. The cell culture medium was collected, and purified to obtain the monkey TIM-3 protein with hFc tag (herein referred to as cTIM-3-hFc protein). […] The cell culture medium was collected, and purified to obtain the murine TIM-3 protein with hFc tag (herein referred to as mTIM-3-hFc protein). Purified human, monkey, and mouse TIM-3 extracellular domain proteins (hTIM-3-hFc, cTIM-3-hFc, and mTIM-3-hFc) were diluted with PBS to a final concentration of 1.0 μg/ml and then added to a 96-well ELISA plate with 100 μl per well. The plate was sealed with plastic film and incubated overnight at 4° C. The plate was washed 4 times with the plate washing solution (PBS+0.01% Tween20) on the next day, and added with the blocking solution (PBS+0.01% Tween20+1% BSA) and sealed at room temperature for 1-2 hours. The blocking solution was poured out. 50-100 μl of the antibody sample to be tested was added to each well. The plate was incubated at 37° C. for 1-2 hours, and washed 2-3 times with plate washing solution (PBS+0. 01% Tween20). HRP (horseradish peroxidase) labeled secondary antibody was added. The plate was incubated at 37° C. for 1-2 hours, and washed 2-3 times with plate washing solution (PBS+0. 01% Tween20). […] of TMB substrate was added to each well. After incubated at room temperature for 15-30 minutes, the plate was added with […] stop solution (1.0N HCl) to each well. An ELISA plate reader (TiterMax 384plus, Molecular Device) was used to read the A450 nm value.

[7] = molecular target: T6, human TIM-3 protein with hFc tag …; test: ELISA, coated hTIM-3-hFc; antibody 0.0667 nM
Text: as §1

[8] = molecular target: T5, murine TIM-3 protein with hFc tag …; test: ELISA, coated mTIM-3-hFc; antibody 66.667 nM
Text: as §1

Binder	OD450 [1]	Mean fluorescence intensity [2]	OD450 [3]	OD450 [4]	OD450 [5]	OD450 [6]	OD450 [7]	OD450 [8]
215A8F2 fully human TIM-3 antibody (human IgG4, kappa) (antibody, V domains shown) VH: QVQLQQWGAGLLKPSETLSLTCTVYGGSFSGYYWNWIRQPPGKGLEWLGEINHSGSTNYNPSLKRRVTISVDTSKNQFSLKLSSVTAADTAVYYCARVYYYGPFDFWGQGTLVTVSS VL: not shown	3.24	2.8	0.21	2.88	1.08	–	–	–
215A8F2 (TIM-3 antibody purified from hybridoma, chimeric antibody of Example 2) (antibody, V domains shown, From hybridoma of Harbour H2L2 transgenic mice: human variable regions, rat constant regions) VH: QVQLQQWGAGLLKPSETLSLTCTVYGGSFSGYYWNWIRQPPGKGLEWLGEINHSGSTNYNPSLKRRVTISVDTSKNQFSLKLSSVTAADTAVYYCARVYYYGPFDFWGQGTLVTVSS VL: not shown	–	–	–	–	–	0.64	1	0.77
134H3G6 fully human TIM-3 antibody (human IgG4, kappa) (antibody, V domains shown) VH: EVQLVESGGGLVQPGGSLRLSCAASGFTFSNSWMTWVRQAPGKGLEWVANIKQAGTEKYYVDSVKGRFTISRDNAKNSLYLQMNSLRAEDTAVYYCNSGSNYFDYWGQGTLVTVSS VL: EIVMTQSPATLSVSPGERATLSCRARQNFYSNLAWYQQKPGQAPRLLIYGASTRATGIPARFSGSGSGTEFTLTISSLQSEDFAVYYCQQYNNWPLTFGGGTKVEIK	3.11	2.9	0.22	2.74	0.94	–	–	–
57F4E5 (TIM-3 antibody purified from hybridoma, chimeric antibody of Example 2) (antibody, V domains shown, From hybridoma of Harbour H2L2 transgenic mice: human variable regions, rat constant regions) VH: EVQLVESGGGLVQPGGSLRLSCAASGFTFSSYWMSWVRQAPGKGLEWVANIKQDGSEKYYVDSVKGRFTISRDSAKNSLYLQMNSLRAEDTAMYFCARDSNFFDYWGQGTLVTVSS VL: ETVMTQSPATLSVSPGERATLSCRASQSVSSNLAWYQRKPGQAPRLLIYFSSTRATGIPARFSGSGSGTEFTLTISSLQSEDFAVYYCQQYNNWPLTFGGGTKVEIK	–	–	–	–	–	0.68	2.83	0.74
18D2H2 (TIM-3 antibody purified from hybridoma, chimeric antibody of Example 2) (antibody, V domains shown, From hybridoma of Harbour H2L2 transgenic mice: human variable regions, rat constant regions) VH: EVQLVESGGDLVQPGGSLRLSCAASGFTFSTYWMTWVRQAPGRGLEWVANIKQDGSAKYYVDSVKGRFTLSRDDAKNSLYLQMNSLRAEDTAVYYCARGSNWFDYWGQGTLVTVSS VL: ETVMTQSPATLSVSPGERATLSCRANQNVYSNLAWYQQKPGQAPRLLIYDASTRATGFPARFSGSGSGTEFTLTISSLQSEDFAVYYCQQYNNWPLTFGGGTKVEIK	–	–	–	–	–	0.63	0.35	0.85
7A4F10 (TIM-3 antibody purified from hybridoma, chimeric antibody of Example 2) (antibody, V domains shown, From hybridoma of Harbour H2L2 transgenic mice: human variable regions, rat constant regions) VH: EVQLLESGGGLVQPGGSLRLSCAASGFTFRTHLISWVRQAPGKGLEWVAAITGSGGSTYYADSVKGRFIISRDNSKNTLFLQMNSLRAEDTAVYYCAKDGGSGSYDDFWGQGTLVTVSS VL: ETVLTQSPVTLSLSPGERATLSCRASQSVGSYLAWYQQKPGQAPRLLIYDASNRATGIPARFSGSGSGTDFTLTISSLEPEDFAVYYCQQRSNWPPTFGQGTKVEIK	–	–	–	–	–	0.64	0.21	0.66
34B6D8 (TIM-3 antibody purified from hybridoma, chimeric antibody of Example 2) (antibody, V domains shown, From hybridoma of Harbour H2L2 transgenic mice: human variable regions, rat constant regions) VH: EVQLVESGGGLVQPGGSLRLSCAASGFTFSTYWMTWVRQAPGKRLEWVANIKQGGGDKYYVDSVKGRFTISTDNAKNSLYLQMNSLRAEDTAVYYCARGSNWFDPWGQGTLVTVSS VL: EIVMTQSPATLSMSPGERATLSCRASQSVYDNLAWYQQKPGQAPRLLIYGASTRATGIPARFSGSGSGTEFTLTISSLQSEDFALYYCQQYTHWPITFGQGTRLEIK	–	–	–	–	–	0.65	1.62	1.1

The remaining lines, values ahead:

OD450 [1]	Mean fluorescence intensity [2]	OD450 [3]	OD450 [4]	OD450 [5]	OD450 [6]	OD450 [7]	OD450 [8]	Binder
3.42	2.9	0.24	2.89	1.55	–	–	–	57F4E5 fully human TIM-3 antibody (human IgG4, kappa) (antibody, V domains shown) VH: EVQLVESGGGLVQPGGSLRLSCAASGFTFSSYWMSWVRQAPGKGLEWVANIKQDGSEKYYVDSVKGRFTISRDSAKNSLYLQMNSLRAEDTAMYFCARDSNFFDYWGQGTLVTVSS VL: ETVMTQSPATLSVSPGERATLSCRASQSVSSNLAWYQRKPGQAPRLLIYFSSTRATGIPARFSGSGSGTEFTLTISSLQSEDFAVYYCQQYNNWPLTFGGGTKVEIK
–	–	–	–	–	0.64	0.2	0.7	134H3G6 (TIM-3 antibody purified from hybridoma, chimeric antibody of Example 2) (antibody, V domains shown, From hybridoma of Harbour H2L2 transgenic mice: human variable regions, rat constant regions) VH: EVQLVESGGGLVQPGGSLRLSCAASGFTFSNSWMTWVRQAPGKGLEWVANIKQAGTEKYYVDSVKGRFTISRDNAKNSLYLQMNSLRAEDTAVYYCNSGSNYFDYWGQGTLVTVSS VL: EIVMTQSPATLSVSPGERATLSCRARQNFYSNLAWYQQKPGQAPRLLIYGASTRATGIPARFSGSGSGTEFTLTISSLQSEDFAVYYCQQYNNWPLTFGGGTKVEIK
3.27	2.8	0.21	2.58	0.81	–	–	–	18D2H2 fully human TIM-3 antibody (human IgG4, kappa) (antibody, V domains shown) VH: EVQLVESGGDLVQPGGSLRLSCAASGFTFSTYWMTWVRQAPGRGLEWVANIKQDGSAKYYVDSVKGRFTLSRDDAKNSLYLQMNSLRAEDTAVYYCARGSNWFDYWGQGTLVTVSS VL: ETVMTQSPATLSVSPGERATLSCRANQNVYSNLAWYQQKPGQAPRLLIYDASTRATGFPARFSGSGSGTEFTLTISSLQSEDFAVYYCQQYNNWPLTFGGGTKVEIK
–	–	–	–	–	0.64	1.78	0.9	39E5H1 (TIM-3 antibody purified from hybridoma, chimeric antibody of Example 2) (antibody, V domains shown, From hybridoma of Harbour H2L2 transgenic mice: human variable regions, rat constant regions) VH: EVQLVESGGGLVQPGGSLRLSCAASGFTFSSYWMSWVRQAPGKGLEWVANIKRGGSERYYVDSVKGRFTISGDNAKNSVYLQMNSLRAEDTAVYYCARGSNWFDPWGQGTLVTVSS VL: ETVMTQSPAILSVSPGERATLSCRASQSVYSNLAWYQQKLGQAPRLLIYDASTRATGIPARFSGSGSGTEFTLTISSLQSEDFAVYYCQQYNNWPITFGQGTRLEIK
3.26	2.8	0.22	2.75	0.99	–	–	–	7A4F10 fully human TIM-3 antibody (human IgG4, kappa) (antibody, V domains shown) VH: EVQLLESGGGLVQPGGSLRLSCAASGFTFRTHLISWVRQAPGKGLEWVAAITGSGGSTYYADSVKGRFIISRDNSKNTLFLQMNSLRAEDTAVYYCAKDGGSGSYDDFWGQGTLVTVSS VL: ETVLTQSPVTLSLSPGERATLSCRASQSVGSYLAWYQQKPGQAPRLLIYDASNRATGIPARFSGSGSGTDFTLTISSLEPEDFAVYYCQQRSNWPPTFGQGTKVEIK

From patent US20220033501A1 (SHANGHAI PHARMAEXPLORER, published 2022)
